Measurements: US20030037355, “Methods and compositions to modulate expression in plants” (published 2003)

B1: Ap3 hairpin oligo (dsDNA)
DNA: GGTTACTTCTTCAACTCCATCGGGTTTTCCCGATGGAGTTGAAGAAGTAACC
B2: NRI-2 (dsDNA)
DNA: GGTGCGGCGACTGCAGCAGCGGGTTTTCCCGCTGCTGCAGTCGCCGCACC
B3: m12 hairpin oligo (dsDNA)
DNA: GGAGCCTCCTTCCTCCTCTCACTCGGGTTTTCCCGAGTGAGAGGAGGAAGGAGGCTCC
B4: AP3 endogenous target site (dsDNA)
DNA 1: GATGGAGTTGAAGAAGTA
DNA 2: TACTTCTTCAACTCCATC
B5: B3c2 (dsDNA)
DNA: GGACCCACCGCGTCCCCTCCGGGTTTTCCCGGAGGGGACGCGGTGGGTCC
B6: hHD-I (dsDNA)
DNA: GGGGCCCCGCCTCCGCCGGCGGGTTTTCCCGCCGGCGGAGGCGGGGCCCC
B7: NRI-1 (dsDNA)
DNA: GGTTCTACCCCTCCCACCGCGGGTTTTCCCGCGGTGGGAGGGGTAGAACC
B8: c5p3-g (dsDNA)
DNA: GGCTCTGCTCATCCCACTACGGGTTTTCCCGTAGTGGGATGAGCAGAGCC
B9: m4 endogenous MIPS target site (dsDNA)
DNA 1: GGTGAGGGAGCCGTAGTA
DNA 2: TACTACGGCTCCCTCACC
B10: m34 hairpin oligo (dsDNA)
DNA: GGAGCCAACTACTACGGCTCCCTCACCGGGTTTTCCCGGTGAGGGAGCCGTAGTAGTTGGCTCC
B11: e2c-g (dsDNA)
DNA: GGCACTGCGGCTCCGGCCCCGGGTTTTCCCGGGGCCGGAGCCGCAGTGCC
B12: hHD-II (dsDNA)
DNA: GGGGCAGCCCCCACGGCGCCGGGTTTTCCCGGCGCCGTGGGGGCTGCCCC
B13: c5c1-g (dsDNA)
DNA: GGGACACCCCCAACCCCGCCGGGTTTTCCCGGCGGGGTTGGGGGTGTCCC

Experiments:
[1] = target: T1, ZFPm3 six-finger zinc finger protein (Sp1C framework) (artificial); assay: ELISA, 1.9 ug/ml protein, non-target; conditions: tags: MBP fusion (pMAL-C2), E. coli, hairpin
Experimental: (§1) Coat ELISA plates (Costar 3690) with streptavidin. Use 25 ul/well of 8 ug/ml streptavidin in PBS. Incubate at 37° C. for 1 hr. Wash 2× with dH2O. Bind wells with 25 ul/well of 4 ng/ul biotinylated target oligonucleotide in PBS. Incubate at 37° C. for 1 hr. Wash 2× with dH2O. Block with 175 ul/well of 3% BSA in Zn Buffer A. Incubate at 37° C. for 1 hr. Tap plates dry. Perform 1:2 serial dilutions of extract in Binding Buffer (1%BSA, 5 mM DTT, .12 ug/ul Salmon Sperm DNA in ZnBA). Usually from 1:4 to 1:512 for multi-target ELISA or 1:4 to 1:32 for screening clones for specific DNA binding activity. Incubate 1 hr at room temperature. Wash 8× with dH2O. Add primary antibody: 25 ul/well of 1:1000 dilution of mouse anti-MBP (Sigma M-6295) in 1%BSA ZnBA (no DTT). Incubate 30 min at room temperature. Wash 8× with dH2O. Add secondary antibody: 25 ul/well of 1:1000 dilution of goat anti-mouse/Alkaline Phosphatase (Pierce 31324) in 1%BSA ZnBA (no DTT). Incubate 30 min at room temperature. Wash 8× with dH2O. Develop with 25 ul developer (1 tablet of Sigma 104 Phosphatase Substrate (Sigma 104-105)/5 ml AP Developing Buffer [100 ml diethanolamine+0.05 g MgCl2+97.5 Sodium Azide, adjust to 500 ml with ddH2O, pH 9.88]). Incubate at room temperature for 5-60 min until color reaction is yellow. Read A405 with a plate reader.
(§2) To evaluate the specificity of new zinc finger protein, the affinity of each protein was determined for binding to the target sequence and several non-target sequences at appropriate protein concentration. For example, to protein ZFPm1 and ZFPm2, the non-target oligoes are: Oligo m34 (SEQ ID NO:20), Oligo Ap3 (SEQ ID NO:21), NRI-1 (SEQ ID NO:22), NRI-2 (SEQ ID NO:23), hHD-I (SEQ ID NO:24), hHD-II (SEQ ID NO:25), c5cl-g (SEQ ID NO:26), c5p3-g (SEQ ID NO:27), B3c2 (SEQ ID NO:28), and e2c-g (SEQ ID NO:29). Similarly, to protein ZFPm3 and ZFPm4, the non-target oligoes are Oligo m12 (SEQ ID NO:19), oligo Ap3 (SEQ ID NO:21), and the eight other oligoes. To protein ZFPAp3, the non-target oligoes are Oligo m12, oligo m34 (SEQ ID NO:20), and the eight other oligoes. The affinity reading for target oligo was further normalized to the no oligo control which has the least affinity.

[2] = target: T2, ZFPm1 six-finger zinc finger protein (Sp1C framework) (artificial); assay: ELISA, 31.0 ug/ml protein, non-target; conditions: tags: MBP fusion (pMAL-C2), E. coli, hairpin
Experimental: as §1, §2

[3] = target: T3, ZFPm4 six-finger zinc finger protein (Sp1C framework) (artificial); assay: ELISA, 15.5 ug/ml protein, non-target; conditions: tags: MBP fusion (pMAL-C2), E. coli, hairpin
Experimental: as §1, §2

[4] = target: T4, ZFPm2 six-finger zinc finger protein (Sp1C framework) (artificial); assay: ELISA, 15.5 ug/ml protein, non-target; conditions: tags: MBP fusion (pMAL-C2), E. coli, hairpin
Experimental: as §1, §2

[5] = target: T5, ZFPAp3 six-finger zinc finger protein (Sp1C framework) (artificial); assay: ELISA, 31.0 ug/ml protein; conditions: tags: MBP fusion (pMAL-C2), E. coli; label: 5'-biotin (ELISA); 32P (gel shift); hairpin
Experimental: as §1, with “Develop with 25 ul developer (1 tablet of Sigma 104 Phosphatase Substrate (Sigma 104-105)/5 ml AP Developing Buffer [100 ml diethanolamine+0.05 g MgCl2+97.5 Sodium Azide, adjust to 500 ml with ddH2O, pH 9.88]). Incubate at room temperature for 5-60 min until color reaction is yellow.” left out
(§3) To evaluate the specificity of new zinc finger protein, the affinity of each protein was determined for binding to the target sequence and several non-target sequences at appropriate protein concentration. […] The affinity reading for target oligo was further normalized to the no oligo control which has the least affinity.

[6] = target: T5, ZFPAp3 six-finger zinc finger protein …; assay: EMSA; Zn Buffer A, 10% glycerol, 0.8% BSA, salmon sperm DNA, room temp; conditions: tags: MBP fusion (pMAL-C2), E. coli; label: 5'-biotin (ELISA); 32P (gel shift); hairpin
Experimental: (§4) The affinity of the purified six-finger proteins was measured using gel shift assay. The target oligos used in the ELISA assays were radioactively labeled using [γ32P]-ddATPk and terminal transferase. Ten serial dilutions of 1:3 with the purified protein (starting with ˜1 mg/ml) in binding buffer (1 pM labeled oligo, 10% Glycerol, 0.8% BSA, 0.1 ug/ul salmon sperm DNA in Zn Buffer A) were performed. The ZFP was allowed to bind at room temperature for 1 hr. The samples were then run on 5-6% non-denaturing PAGE gel in TBE. The gel was dried and exposed with Phosphoimager. The affinity (Kd) of the ZFP was calculated from this gel. The Kd value is the concentration of the protein at which half of the labeled oligo is shifted to a higher molecular weight on the gel by binding to the ZFP. […] Most of these affinities compare favorably with the existed 6 finger proteins.

[7] = target: T5, ZFPAp3 six-finger zinc finger protein …; assay: ELISA, 31.0 ug/ml protein, non-target; conditions: tags: MBP fusion (pMAL-C2), E. coli, hairpin
Experimental: as §1, §2

[8] = target: T4, ZFPm2 six-finger zinc finger protein …; assay: ELISA, 15.5 ug/ml protein; conditions: tags: MBP fusion (pMAL-C2), E. coli; label: 5'-biotin (ELISA); 32P (gel shift); hairpin
Experimental: as §1, with “Develop with 25 ul developer (1 tablet of Sigma 104 Phosphatase Substrate (Sigma 104-105)/5 ml AP Developing Buffer [100 ml diethanolamine+0.05 g MgCl2+97.5 Sodium Azide, adjust to 500 ml with ddH2O, pH 9.88]). Incubate at room temperature for 5-60 min until color reaction is yellow.” left out
as §3

[9] = target: T2, ZFPm1 six-finger zinc finger protein …; assay: ELISA, 31.0 ug/ml protein; conditions: tags: MBP fusion (pMAL-C2), E. coli; label: 5'-biotin (ELISA); 32P (gel shift); hairpin
Experimental: as §1, with “Develop with 25 ul developer (1 tablet of Sigma 104 Phosphatase Substrate (Sigma 104-105)/5 ml AP Developing Buffer [100 ml diethanolamine+0.05 g MgCl2+97.5 Sodium Azide, adjust to 500 ml with ddH2O, pH 9.88]). Incubate at room temperature for 5-60 min until color reaction is yellow.” left out
as §3

[10] = target: T2, ZFPm1 six-finger zinc finger protein …; assay: EMSA; Zn Buffer A, 10% glycerol, 0.8% BSA, salmon sperm DNA, room temp; conditions: tags: MBP fusion (pMAL-C2), E. coli; label: 5'-biotin (ELISA); 32P (gel shift); hairpin
Experimental: as §4

[11] = target: T4, ZFPm2 six-finger zinc finger protein …; assay: as above; conditions: tags: MBP fusion (pMAL-C2), E. coli; label: 5'-biotin (ELISA); 32P (gel shift); hairpin
Experimental: as §4

SID-ZFPAp3 = SID-ZFPAp3 (artificial); assay: cell_activity; endogenous AP3, transgenic Arabidopsis ND0052-2e; 5 fold in ND0052-257; conditions: tags: SID
ZFPm4-VP64 = ZFPm4-VP64 (artificial); assay: cell_activity; endogenous MIPS in maize HE89 protoplasts; conditions: tags: VP64
From the text: A maize type II cell line HE89 was used to evaluate the ZFPmips-effector fusion constructs function (FIG. 22). Protoplasts from HE89 suspension cells were isolated and transformed using standard procedures (Chourey and Zurawski, 1981). The activation constructs pND3015, pND3023, pND3024, and pND3016 were transformed into freshly prepared protoplasts. The transcription level of MIPS gene was detected through quantitative PCR. With pND3016 (ZFPm4-VP64 activation constructs), at least 2-fold of activation is detected (FIG. 23). We also measured phytic acid concentration in maize tissues that were transformed by the activation construct of pND3016.

[12] = target: T3, ZFPm4 six-finger zinc finger protein …; assay: ELISA, 15.5 ug/ml protein; conditions: tags: MBP fusion (pMAL-C2), E. coli; label: 5'-biotin (ELISA); 32P (gel shift); hairpin
Experimental: as §1, with “Develop with 25 ul developer (1 tablet of Sigma 104 Phosphatase Substrate (Sigma 104-105)/5 ml AP Developing Buffer [100 ml diethanolamine+0.05 g MgCl2+97.5 Sodium Azide, adjust to 500 ml with ddH2O, pH 9.88]). Incubate at room temperature for 5-60 min until color reaction is yellow.” left out
as §3

[13] = target: T1, ZFPm3 six-finger zinc finger protein …; assay: ELISA, 1.9 ug/ml protein; conditions: tags: MBP fusion (pMAL-C2), E. coli; label: 5'-biotin (ELISA); 32P (gel shift); hairpin
Experimental: as §1, with “Develop with 25 ul developer (1 tablet of Sigma 104 Phosphatase Substrate (Sigma 104-105)/5 ml AP Developing Buffer [100 ml diethanolamine+0.05 g MgCl2+97.5 Sodium Azide, adjust to 500 ml with ddH2O, pH 9.88]). Incubate at room temperature for 5-60 min until color reaction is yellow.” left out
as §3

[14] = target: T3, ZFPm4 six-finger zinc finger protein …; assay: EMSA; Zn Buffer A, 10% glycerol, 0.8% BSA, salmon sperm DNA, room temp; conditions: tags: MBP fusion (pMAL-C2), E. coli; label: 5'-biotin (ELISA); 32P (gel shift); hairpin
Experimental: as §4

[15] = target: T1, ZFPm3 six-finger zinc finger protein …; assay: as above; conditions: tags: MBP fusion (pMAL-C2), E. coli; label: 5'-biotin (ELISA); 32P (gel shift); hairpin
Experimental: as §4

[16] = label: 5'-biotin (ELISA), 32P (gel shift)

T4 sequence (chain, as listed by the source): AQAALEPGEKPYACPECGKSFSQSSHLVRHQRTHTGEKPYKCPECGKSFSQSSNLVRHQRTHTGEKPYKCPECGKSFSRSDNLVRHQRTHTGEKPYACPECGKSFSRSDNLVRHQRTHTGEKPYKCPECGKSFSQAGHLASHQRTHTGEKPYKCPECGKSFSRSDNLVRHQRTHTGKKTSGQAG
T2 sequence (chain, as listed by the source): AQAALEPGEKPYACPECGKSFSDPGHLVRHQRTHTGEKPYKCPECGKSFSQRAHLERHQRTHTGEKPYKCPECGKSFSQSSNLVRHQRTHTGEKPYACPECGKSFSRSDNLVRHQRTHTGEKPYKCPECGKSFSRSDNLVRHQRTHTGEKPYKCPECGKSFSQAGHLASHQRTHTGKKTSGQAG
T1 sequence (chain, as listed by the source): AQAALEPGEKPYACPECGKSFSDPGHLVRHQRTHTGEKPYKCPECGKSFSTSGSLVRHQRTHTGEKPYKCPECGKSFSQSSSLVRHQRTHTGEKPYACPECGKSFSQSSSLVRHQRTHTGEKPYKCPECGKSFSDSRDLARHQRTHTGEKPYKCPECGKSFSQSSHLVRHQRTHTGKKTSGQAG
T5 sequence (chain, as listed by the source): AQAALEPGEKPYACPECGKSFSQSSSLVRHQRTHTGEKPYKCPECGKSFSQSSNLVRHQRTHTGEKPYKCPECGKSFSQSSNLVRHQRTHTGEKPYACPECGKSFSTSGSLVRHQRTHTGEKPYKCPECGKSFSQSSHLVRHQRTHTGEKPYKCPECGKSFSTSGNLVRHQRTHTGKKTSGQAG

Binder	binding signal ([1]; label: 5'-biotin)	binding signal ([2]; label: 5'-biotin)	binding signal ([7]; label: 5'-biotin)	binding signal ([3]; label: 5'-biotin)	binding signal ([4]; label: 5'-biotin)	also measured
B1	–	–	–	–	–	binding signal [1, 16]: 7 fold over no oligo; binding signal [2, 16]: 4 fold over no oligo; binding signal [3, 16]: 2 fold over no oligo; binding signal [4, 16]: 3 fold over no oligo; binding signal [5]: 27 fold over no oligo; Kd [6]: 2.3 nM
B2	6 fold over no oligo	4 fold over no oligo	4 fold over no oligo	3 fold over no oligo	2 fold over no oligo	–
B3	–	–	–	–	–	binding signal [1, 16]: 3 fold over no oligo; binding signal [7, 16]: 14 fold over no oligo; binding signal [3, 16]: 4 fold over no oligo; binding signal [8]: 23 fold over no oligo; binding signal [9]: 18 fold over no oligo; Kd [10]: 2 nM; Kd [11]: 7.5 nM
B4	–	–	–	–	–	activity (SID-ZFPAp3): 46 fold repression
B5	3 fold over no oligo	4 fold over no oligo	3 fold over no oligo	5 fold over no oligo	4 fold over no oligo	–
B6	1 fold over no oligo	5 fold over no oligo	2 fold over no oligo	2 fold over no oligo	3 fold over no oligo	–
B7	4 fold over no oligo	5 fold over no oligo	8 fold over no oligo	5 fold over no oligo	7 fold over no oligo	–
B8	3 fold over no oligo	3 fold over no oligo	2 fold over no oligo	2 fold over no oligo	3 fold over no oligo	–
B9	–	–	–	–	–	activity (ZFPm4-VP64): ≥ 2 fold activation
B10	–	–	–	–	–	binding signal [2, 16]: 5 fold over no oligo; binding signal [7, 16]: 10 fold over no oligo; binding signal [4, 16]: 13 fold over no oligo; binding signal [12]: 16 fold over no oligo; binding signal [13]: 13 fold over no oligo; Kd [14]: 0.25 nM; Kd [15]: 0.18 nM
B11	9 fold over no oligo	2 fold over no oligo	3 fold over no oligo	5 fold over no oligo	2 fold over no oligo	–
B12	3 fold over no oligo	4 fold over no oligo	2 fold over no oligo	2 fold over no oligo	2 fold over no oligo	–
B13	3 fold over no oligo	7 fold over no oligo	2 fold over no oligo	3 fold over no oligo	5 fold over no oligo	–
